Assay results reported in patent US10131702B2, “Glucagon-GLP-1-GIP triple agonist compounds” (priority 2013, dated 2018).
Where two headings read alike, the source gives them in different places.

T1: human GIP receptor (human, UniProt P48546 22-466)
T1 sequence: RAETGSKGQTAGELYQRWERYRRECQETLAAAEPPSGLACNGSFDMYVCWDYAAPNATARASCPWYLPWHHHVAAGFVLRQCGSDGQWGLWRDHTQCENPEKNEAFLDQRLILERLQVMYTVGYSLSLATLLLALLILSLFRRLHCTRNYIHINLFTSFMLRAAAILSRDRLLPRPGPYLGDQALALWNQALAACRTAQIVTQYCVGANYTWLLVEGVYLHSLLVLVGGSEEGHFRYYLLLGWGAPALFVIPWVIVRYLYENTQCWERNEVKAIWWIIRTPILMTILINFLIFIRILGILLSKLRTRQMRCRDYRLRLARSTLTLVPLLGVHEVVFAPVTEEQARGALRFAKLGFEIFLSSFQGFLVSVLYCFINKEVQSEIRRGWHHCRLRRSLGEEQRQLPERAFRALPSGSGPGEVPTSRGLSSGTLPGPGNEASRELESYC

B1: Compound 7 (peptide)
peptide: YAQGTFTSDYSKALDSKAAHDFVEWLLSA
HELM: PEPTIDE1{Y.[Aib].Q.G.T.F.T.S.D.Y.S.K.A.L.D.S.K.A.A.H.D.F.V.E.W.L.L.S.A.[am]}$$$$V2.0
SMILES: CC(C)C[C@H](NC(=O)[C@H](C)NC(=O)[C@H](CCCCN)NC(=O)[C@H](CO)NC(=O)[C@H](Cc1ccc(O)cc1)NC(=O)[C@H](CC(=O)O)NC(=O)[C@H](CO)NC(=O)[C@@H](NC(=O)[C@H](Cc1ccccc1)NC(=O)[C@@H](NC(=O)CNC(=O)[C@H](CCC(N)=O)NC(=O)C(C)(C)NC(=O)[C@@H](N)Cc1ccc(O)cc1)[C@@H](C)O)[C@@H](C)O)C(=O)N[C@@H](CC(=O)O)C(=O)N[C@@H](CO)C(=O)N[C@@H](CCCCN)C(=O)N[C@@H](C)C(=O)N[C@@H](C)C(=O)N[C@@H](Cc1c[nH]cn1)C(=O)N[C@@H](CC(=O)O)C(=O)N[C@@H](Cc1ccccc1)C(=O)N[C@H](C(=O)N[C@@H](CCC(=O)O)C(=O)N[C@@H](Cc1c[nH]c2ccccc12)C(=O)N[C@@H](CC(C)C)C(=O)N[C@@H](CC(C)C)C(=O)N[C@@H](CO)C(=O)N[C@@H](C)C(N)=O)C(C)C
B2: Compound 9 (peptide)
peptide: YAQGTFTSDYSIYLDEKAAHDFVEWLLSA
HELM: PEPTIDE1{Y.[Aib].Q.G.T.F.T.S.D.Y.S.I.Y.L.D.E.K.A.A.H.D.F.V.E.W.L.L.S.A.[am]}$$$$V2.0
SMILES: CC[C@H](C)[C@H](NC(=O)[C@H](CO)NC(=O)[C@H](Cc1ccc(O)cc1)NC(=O)[C@H](CC(=O)O)NC(=O)[C@H](CO)NC(=O)[C@@H](NC(=O)[C@H](Cc1ccccc1)NC(=O)[C@@H](NC(=O)CNC(=O)[C@H](CCC(N)=O)NC(=O)C(C)(C)NC(=O)[C@@H](N)Cc1ccc(O)cc1)[C@@H](C)O)[C@@H](C)O)C(=O)N[C@@H](Cc1ccc(O)cc1)C(=O)N[C@@H](CC(C)C)C(=O)N[C@@H](CC(=O)O)C(=O)N[C@@H](CCC(=O)O)C(=O)N[C@@H](CCCCN)C(=O)N[C@@H](C)C(=O)N[C@@H](C)C(=O)N[C@@H](Cc1c[nH]cn1)C(=O)N[C@@H](CC(=O)O)C(=O)N[C@@H](Cc1ccccc1)C(=O)N[C@H](C(=O)N[C@@H](CCC(=O)O)C(=O)N[C@@H](Cc1c[nH]c2ccccc12)C(=O)N[C@@H](CC(C)C)C(=O)N[C@@H](CC(C)C)C(=O)N[C@@H](CO)C(=O)N[C@@H](C)C(N)=O)C(C)C
B3: Compound 5 (peptide)
peptide: YAQGTFTSDYSIYLDSKAAHDFVEWLLSA
HELM: PEPTIDE1{Y.[Aib].Q.G.T.F.T.S.D.Y.S.I.Y.L.D.S.K.A.A.H.D.F.V.E.W.L.L.S.A.[am]}$$$$V2.0
SMILES: CC[C@H](C)[C@H](NC(=O)[C@H](CO)NC(=O)[C@H](Cc1ccc(O)cc1)NC(=O)[C@H](CC(=O)O)NC(=O)[C@H](CO)NC(=O)[C@@H](NC(=O)[C@H](Cc1ccccc1)NC(=O)[C@@H](NC(=O)CNC(=O)[C@H](CCC(N)=O)NC(=O)C(C)(C)NC(=O)[C@@H](N)Cc1ccc(O)cc1)[C@@H](C)O)[C@@H](C)O)C(=O)N[C@@H](Cc1ccc(O)cc1)C(=O)N[C@@H](CC(C)C)C(=O)N[C@@H](CC(=O)O)C(=O)N[C@@H](CO)C(=O)N[C@@H](CCCCN)C(=O)N[C@@H](C)C(=O)N[C@@H](C)C(=O)N[C@@H](Cc1c[nH]cn1)C(=O)N[C@@H](CC(=O)O)C(=O)N[C@@H](Cc1ccccc1)C(=O)N[C@H](C(=O)N[C@@H](CCC(=O)O)C(=O)N[C@@H](Cc1c[nH]c2ccccc12)C(=O)N[C@@H](CC(C)C)C(=O)N[C@@H](CC(C)C)C(=O)N[C@@H](CO)C(=O)N[C@@H](C)C(N)=O)C(C)C
B4: Compound 8 (peptide)
peptide: YAQGTFTSDYSKYLESKAAHDFVEWLLSA
HELM: PEPTIDE1{Y.[Aib].Q.G.T.F.T.S.D.Y.S.K.Y.L.E.S.K.A.A.H.D.F.V.E.W.L.L.S.A.[am]}$$$$V2.0
SMILES: CC(C)C[C@H](NC(=O)[C@H](CC(C)C)NC(=O)[C@H](Cc1c[nH]c2ccccc12)NC(=O)[C@H](CCC(=O)O)NC(=O)[C@@H](NC(=O)[C@H](Cc1ccccc1)NC(=O)[C@H](CC(=O)O)NC(=O)[C@H](Cc1c[nH]cn1)NC(=O)[C@H](C)NC(=O)[C@H](C)NC(=O)[C@H](CCCCN)NC(=O)[C@H](CO)NC(=O)[C@H](CCC(=O)O)NC(=O)[C@H](CC(C)C)NC(=O)[C@H](Cc1ccc(O)cc1)NC(=O)[C@H](CCCCN)NC(=O)[C@H](CO)NC(=O)[C@H](Cc1ccc(O)cc1)NC(=O)[C@H](CC(=O)O)NC(=O)[C@H](CO)NC(=O)[C@@H](NC(=O)[C@H](Cc1ccccc1)NC(=O)[C@@H](NC(=O)CNC(=O)[C@H](CCC(N)=O)NC(=O)C(C)(C)NC(=O)[C@@H](N)Cc1ccc(O)cc1)[C@@H](C)O)[C@@H](C)O)C(C)C)C(=O)N[C@@H](CO)C(=O)N[C@@H](C)C(N)=O
B5: Compound 6 (peptide)
peptide: YAQGTFTSDYSKYLDSKAARDFVEWLLSA
HELM: PEPTIDE1{Y.[Aib].Q.G.T.F.T.S.D.Y.S.K.Y.L.D.S.K.A.A.R.D.F.V.E.W.L.L.S.A.[am]}$$$$V2.0
SMILES: CC(C)C[C@H](NC(=O)[C@H](CC(C)C)NC(=O)[C@H](Cc1c[nH]c2ccccc12)NC(=O)[C@H](CCC(=O)O)NC(=O)[C@@H](NC(=O)[C@H](Cc1ccccc1)NC(=O)[C@H](CC(=O)O)NC(=O)[C@H](CCCNC(=N)N)NC(=O)[C@H](C)NC(=O)[C@H](C)NC(=O)[C@H](CCCCN)NC(=O)[C@H](CO)NC(=O)[C@H](CC(=O)O)NC(=O)[C@H](CC(C)C)NC(=O)[C@H](Cc1ccc(O)cc1)NC(=O)[C@H](CCCCN)NC(=O)[C@H](CO)NC(=O)[C@H](Cc1ccc(O)cc1)NC(=O)[C@H](CC(=O)O)NC(=O)[C@H](CO)NC(=O)[C@@H](NC(=O)[C@H](Cc1ccccc1)NC(=O)[C@@H](NC(=O)CNC(=O)[C@H](CCC(N)=O)NC(=O)C(C)(C)NC(=O)[C@@H](N)Cc1ccc(O)cc1)[C@@H](C)O)[C@@H](C)O)C(C)C)C(=O)N[C@@H](CO)C(=O)N[C@@H](C)C(N)=O
B6: Compound 10 (peptide)
peptide: YAQGTFTSDYSIYLDSKAAKDFVEWLLSA
HELM: PEPTIDE1{Y.[Aib].Q.G.T.F.T.S.D.Y.S.I.Y.L.D.S.K.A.A.K.D.F.V.E.W.L.L.S.A.[am]}$$$$V2.0
SMILES: CC[C@H](C)[C@H](NC(=O)[C@H](CO)NC(=O)[C@H](Cc1ccc(O)cc1)NC(=O)[C@H](CC(=O)O)NC(=O)[C@H](CO)NC(=O)[C@@H](NC(=O)[C@H](Cc1ccccc1)NC(=O)[C@@H](NC(=O)CNC(=O)[C@H](CCC(N)=O)NC(=O)C(C)(C)NC(=O)[C@@H](N)Cc1ccc(O)cc1)[C@@H](C)O)[C@@H](C)O)C(=O)N[C@@H](Cc1ccc(O)cc1)C(=O)N[C@@H](CC(C)C)C(=O)N[C@@H](CC(=O)O)C(=O)N[C@@H](CO)C(=O)N[C@@H](CCCCN)C(=O)N[C@@H](C)C(=O)N[C@@H](C)C(=O)N[C@@H](CCCCN)C(=O)N[C@@H](CC(=O)O)C(=O)N[C@@H](Cc1ccccc1)C(=O)N[C@H](C(=O)N[C@@H](CCC(=O)O)C(=O)N[C@@H](Cc1c[nH]c2ccccc12)C(=O)N[C@@H](CC(C)C)C(=O)N[C@@H](CC(C)C)C(=O)N[C@@H](CO)C(=O)N[C@@H](C)C(N)=O)C(C)C

Key:
Experiment in all cases: cell-based or functional assay
human GIP receptor [1] = molecular target: T1, human GIP receptor
human glucagon receptor [2] = molecular target: T2, human glucagon receptor (human, UniProt P47871 26-477)
[3] = molecular target: T3, human glucagon-like peptide 1 receptor (human, UniProt P43220 24-463)
human GIP receptor [4] = molecular target: T1, human GIP receptor; remark: listed apart in the source
human glucagon receptor [5] = molecular target: T2, human glucagon receptor; remark: listed apart in the source
[6] = molecular target: T3, human glucagon-like peptide 1 receptor; remark: listed apart in the source

T2 sequence (P47871 26-477): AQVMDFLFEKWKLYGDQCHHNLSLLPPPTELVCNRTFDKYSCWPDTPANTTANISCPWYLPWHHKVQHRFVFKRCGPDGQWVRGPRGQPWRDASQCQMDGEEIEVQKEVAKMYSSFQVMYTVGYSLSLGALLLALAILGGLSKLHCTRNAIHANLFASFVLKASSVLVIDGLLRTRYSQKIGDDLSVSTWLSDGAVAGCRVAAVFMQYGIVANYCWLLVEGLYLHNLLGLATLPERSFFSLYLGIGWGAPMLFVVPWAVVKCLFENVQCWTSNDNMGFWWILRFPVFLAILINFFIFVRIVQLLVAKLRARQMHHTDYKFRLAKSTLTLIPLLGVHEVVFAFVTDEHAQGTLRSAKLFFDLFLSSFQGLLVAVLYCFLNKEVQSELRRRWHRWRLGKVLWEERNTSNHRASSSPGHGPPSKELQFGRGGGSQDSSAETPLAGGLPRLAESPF

Binder | EC50 (cAMP induction) (human GIP receptor [1]) [pM] | EC50 (cAMP induction) (human glucagon receptor [2]) [pM] | EC50 (cAMP induction) [3] [pM] | EC50 (cAMP induction) (human GIP receptor [4]) [pM] | EC50 (cAMP induction) (human glucagon receptor [5]) [pM] | EC50 (cAMP induction) [6] [pM]
B1 | 31 | 86 | 86 | 420 | 86 | 31
B2 | 6 | 97 | 97 | 56 | 97 | 5.5
B3 | 9 | 65 | 65 | 170 | 65 | 9.2
B4 | 15 | 42 | 42 | 200 | 42 | 15
B5 | 10 | 18 | 18 | 340 | 18 | 9.5
B6 | 12 | 100 | 100 | 240 | 100 | 12
